Results reported in the DeepSol protein solubility set.

Assay: soluble on expression in E. coli; label from the status in PepcDB or PDB records

Sequence | soluble on expression in E. coli
MALPGNYAPEVLLPQIAEINARIYADVNNGVYKAGFATRQSVYEKAVMVLFRCMDELEQLLSRQRYLIGNCITEADWRIFTTLIRFDPVYHGHFKCNLRRLVDYPNLWAYTRELYQWPGVAETVNMQHIKEHYYRSHPTINLEHHHHHH | not soluble
MSLNLREFKEFIDNEMIVILGQMDSPTQIFEHVFLGSEWNASNLEDLQNRGVRYILNVTREIDNFFPGVFEYHNIRVYDEEATDLLAYWNDTYKFISKAKKHGSKCLVHCKMGVSRSASTVIAYAMKEYGWNLDRAYDYVKERRTVTKPNPSFMRQLEEYQGILLASKEGHHHHHH | not soluble
MSLLNEENNFYNVDLLDLLKDSNEAVLPYKRIRFRRNQKILTEGAETTYFYIIEDGVVSMSKNTCKEDSIISFLGKQDSIGPLTLLGGAKSPANYTSISEVSVYQFERKYVLNKLLSSPDVFWQMNSLMQSMVSPMLEREAYVNLPSSEKVLAGLIACGERFGRIESDGSCLIPYYFTQKILGNYLNLARAYVATNLRKLEEDGVISLSPKPWRVKNFDVHRQKLKDNYKPYI | not soluble
MGSDKIHHHHHHLAVLRYTVTNTGQLSVSGSWSASVKHPLIAVVFSSGRPDAPTLGKILKQLKKRYGIKNFNAVGHSAGSAAWANWAVTPDKQGMPQLRRLITIAGPFNGFPGMPGMNGGQHITLAKDGRPNVMSDRYKPLYDNRRYFPKTAAVLNLFGNLGKGTDGRVPVNSARSLRYVVAGRAKSYTEREITNSKAQHSQLHEHNPLVNRYLYEFLNNGKITN | not soluble
MMKPVLHFSKLYEVKKLLRKSRLYTVCEESRCPNISECFGNKTATFMILGNRCTRRCAFCNVEKGFPKGVDPEEPYRLLEAVKTLGLKYVVITSVTRDDLPDGGASHFAKCIRVLKENIEDIKVEVLIPDFRGNKKALEVVLKEKPVVLNHNVETVPRLYPSVRIGANYKRSLNILKWSKEIDKSVYTKSALILGFGERKEEVIKVMEDLRSVDCDFLVLGQYYQPSLKHHPVVKYYSEEEFKEFEEIGYEMGFKFVVSKPNARSSYKAFESLLSTLEHHHHHH | not soluble
MTTTTTFKGVDPNSRNSSRVLRPPGGGSNFSLGFDEPTEQPVRKNKMASNIFGTPEENQASWAKSAGAKSSGGREDLESSGLQRRNSSEASSGDFLDLKGEGDIHENVDTDLPGSLGQSEEKPVPAAPVPSPVAPAPVPSRRNPPGGKSSLVLG | soluble
MIKLTVSHHKLTASGHALFAKKGQDIVCAAVSGIIFGALPWFETNSIAVQEDATVPSLSLELVQPTAKLITGLSVVIMQLKTLAHSYPQFISFEDQRKDE | soluble
TSPVNWDVTGTFSMNRTYMKKLPYNGRDKNRVQGGLVWDAKSGTYVETGGLAEGERIGGRWGYKYLGVYDTDEEAAKAPVDTKVSGSKMNKKKVAGDAIWADLDNNGVIDDKDITFIGWANPDKKGALINNLSYKNFSLRLVVDFALGHSIANIWRCRANANARNAIITTTDVTNGNIWWQTGDAATAKYPRYDVASDWDNGYRNHMRTIAYAGMNSNGNADNTAYYSKGDYLCFREVSLGYELPRSVCSKMKVKGVSLNAGVTNIGYITAFDGLNPEQYDGQETGEYFLPIQFNFGVRLTF | not soluble
MGSDKIHHHHHHACSWVDDDRSDCPTGCWLKLSYTYNMLNVDAVTTQVKDVTLFILDQEGNYIVREEVDSLTFHQNECTIQVPSLPQGDYTFLVWAGLADSLYRHTPTSLTLLRNEAGEQSEKLSSLFHGRLDNVHISGEYQVLALSLTKNTNILSCILQSQSAAPLDTDDFRLELTARNGCMDHRNTPTDSVSTCYLPFMQESANLEDIQVVHAGMNTLRLMENDDTRLRLIHQPDGKEIFDIPLTPYLLLSRNVETTYMPPQEYLDRQDRYNLIFFLSPTNDPQKPYICLQMQVNGWIIRINDAELDK | not soluble
MRPQQLHATEITSSGFRLAWPPLLTADSGYYVLELVPSAQPGAARRQQLPGNATDWIWAGLDPDTDYDVALVPESNVRLLRPQILRVRTRPGEAGPGASGPESGAGPAPTQLAALPAPEEAGPERIVISHARPRSLRVSWAPALGSAAALGYHVQFGPLRGGEAQRVEVPAGRNCTTLQGLAPGTAYLVTVTAAFRSGRESALSAKACTPDGPRPRPRPVPRAPTPGTASREP | soluble
MGSDKIHHHHHHSDDDDEKMVNPVPQTTFTGENGLQLTYNGAPMPGKKVTFTPDATNAQKATLRLEGEFDLNGILGKAKSAAAREDVSMPTAPGVLPGSPVVTLPVDLTINGDQCSFAGTSETDYCTFSYKGEVSAGAMELALSEVKLKNAKLAGMTWKLKPYNQEVEEQDPVRLVWESEKGIPLFGSFEMPVESVLKIALRMPLIAVGAENKVSATDMLGTVLKDVTFMEDGNIVATYKDAANGGTEWTKSPVNLAQYVVENDNQIKVFLNPAAIIAAVNNAGRAIDVQTVIQQAIQILYPMLVNGVPVAFEQTEDALSVYLNTELLLPLLKTLVVPLLSDEEVVAMLVELMKKDPDFGEMAGLAEPMLKAFPEIIESTTKVEIGLNFVK | not soluble
MSENSENAPEKVEFTPIGYVENDYFKPEYKEEVYEKVSKIVLREDLVDGLYRVEELEKLYILFYFSKSEGYKLIHRRRYDGEMSGVFASRSPYRPNGIGLTLVELLKVEGNVLYVKGLDAINGTPVLDIKPYMKDLEEKEKENTKLEHHHHHH | soluble
MGPVPEFSVIIPARNEAAYLPGTLRALERQTLAPAEVIVVDNASRDQTAQIARSWGAQVLSCPEGGVARARQLGLDTARSSWVATTDADSLPAPGWLAAYAQAALLAGGYPEVEAYEDVILGQNLARLGEIGYVPRALVETSARRLDRGVGPFLIQHLRNLTGHTRGLEHHHHHH | not soluble
MLFCTNIAIAQGTIEDYRRAYSAGEKFSANKVSYSNVNPEWIGKTHYFWYVRNTPDGRIYVLVDADTQNRKDLFDHKLVAAALSEASGRKIEATSLYLDRLSVNNGLDTLHFVFNNHRWMYVIDKNQLTDEGALPTPRKQRHWMETDDEKTAAPVTSPDKKYTAFIKNHNIYVKETATGKEKQLSLDGTLGNYYSAYIRWSPDSKKSLPARFVR | not soluble
MNITFKFNFMSYKHYFSPKHKPEITQAITITEPAIIFRLNKTYSTNLSQQEIYDITRSDWILGHRREKAEYGFAAFKGVVLQVYRIDRWDFSGKVTDVGRQRWFFEGKVATEMQDYINGNISHYFKKGDRSPTKYLNCLEHHHHHH | not soluble
SNAKSEIGKYAPFFSLPNAKGEKITRSSDAFKQKSLLINFWASWNDSISQKQSNSELREIYKKYKKNKYIGMLGISLDVDKQQWKDAIKRDTLDWEQVCDFGGLNSEVAKQYSIYKIPANILLSSDGKILAKNLRGEELKKKIENIVEEA | soluble
ERIQQFYFEVKNKDKFEALCRIIDVEEPETTIIFCRTKRGVDELVESMQFRGYNVEGMHGDMSQNQRINTLKKFKENNIDFLVATDVAARGIDVHNVSHVINYDIPQDMESYVHRIGRTGRANAEGIAYSLVTPREYVMIKQIEKFTKSKIRRKEIPTIDDIFETKYNTLTDKITKNIEKDDFKKYIPFVQKLDDEFNLVDVSAALVKMIFDKEMGFDYSDDDKLKSDESVR | not soluble
GSSGSSGVSSQETQGGPLAPMTGTIEKVFVKAGDKVKAGDSLMVMIAMKMEHTIKSPKDGTVKKVFYREGAQANRHTPLVEFEEEESDKRESESGPSSG | soluble
MGKLNRRDVIKGLGMAAASLAAAQRGLQARAAPSRIVWSPYVVFLNANAKAFIVDTRTDQVVASLDTARGATLGSMTPDAKKVYVSGAGEGETRVVILDLENLRVAKVLETGNRPKHGLVSPDGRRVGVDHWALSGGKLRLTFIRTEDDTIEKVLDIPVTNQPKGVTSMHNAWSWDSRYFFSVDRVDDRLVVVDTADWSVRTFSAPSVPHYPVVSPDGKELWLVHEGNDRVRPGIAVYDLTRPDLPIVAQVEMPLIGEDAVEAHHGNFTQDGRYFMALNRGPGNNLRGREVAFFSPRTKRLVHRLTCASTGVGHAYNSPDGRRVIATNYGNNVITVIDLLGLRTLKDLVIGKGRMGHVVFTPDGRFAYLSNADGNLYKLDMRSLTVVKVIETGQTNGGGQVLNVWTNVFEELPRG | soluble
MGSDKIHHHHHHMTHPLLAIDNLSIAFRQQGETQTVVHNLSLEVAVGETLALVGESGSGKSISALSVLRLLPTPPASYPSGDIRFHGQSLLHADEATLRGVRGNRIAMIFQEPMVSLNPLHTLEKQLYEVLSLHRGMRKQAARGEILDCLERVGIRQAPRRLADYPHQLSGGERQRVMIAMALLTRPELLIADEPTTALDVSVQAQILQLLRELKQELNMGLLFITHNLSIVRQLADRVAVMQNGRCVEHNDCRALFSAPAHPYTQRLLDSEPDGEPVPLAADAPVLLQADDLKVAFPVRKGILRRVVDHHRVVNSLSFQLRAGETLGLVGESGSGKSTTGLALLRLIPSGGKITFAGQPIQGRNRRQLLPLRRQMQVVFQDPNSSLNPRLTAQQIIEEGLRVHQPTLTAAEREQAVILAMQEVGLDPASRQRYPAAFSGGQRQRIAIARALIVKPQLIVLDEPTSSLDKTVQAQILNLLKALQRKHQLAYIFISHDLGVVRALCHQVMVLRQGEVVEQGECKSVFSAPRHEYTRQLLALS | not soluble
MDTESFKREFLPYHRKLYCVAYRLLENAADAEDLVQEAYLKLWDKREGLSVISNPEAFSVTLVKNMCFDLLRSGKYVLSRQSVELSAAQDVFQPDNLEAREGVRQIKDIIAHLPEQQQRIINMRDIKGCSYEEIEQVTGLNSINVRVLLSRARKKIREEFNKWNNYESRRN | not soluble
MNYILKQMLGGRQVIATHTCIGMDTDAFQNGRNLVTDTLEIYTGDLRKTLDTLSSIFHPSSFPLKSLRILDNADFKHPIIQGSLLLVVPNTENMHLISNKRVHARYFYYKDDVDFIINKWLDDGKEAGTHFSIGMFLTEDHVKEKYEEFLSTFEERVSWRTNYPPCFAINIDNFSEIVIGYEEFQQISTPEWRLNFKVQKREEFV | not soluble
MYIKNSERLKFRLMDSKDAQELWEIDQDPTVMKFLNGGNPTSIEQVNSVFIPRMNKYRNSELGWGIWQVSNKVTDEYLGWVLIRPMSFFTESPNTKDLELGWRFFQSTWGKGYATEAAIAIRDAVVANTDVTHVSALAVADNLASVGVMKKMGMHFVRAYLHEDPIGDFDAVHYQMSVRNK | not soluble
MSLKVALVHDWLTNMGGAERVIINLKEIYKEAPIYTSLYNPDKLDDELRNIDVRTSFLQKPKNIKRGHQKLLPFMPMAFESFDLNEYDIVLSSCSSCAKGVVTNPNTMHVCYCHTPMRYAWEYYYEYADEWGLNKLKGKLLKYVMNYIRLWDGVSSKRVDYYIANSQNVAKRIWKHYKRESVVIHPPVRCKLFDISDVNEEYFLIVSRLVPYKRIDLAVEVFNELGLPLVVIGGGKDLDRLKNMAKDNIKFLGRQSDEVIKEYYSKCRAFIFPGEEDFGITPLEAQASGRPVIAYGKGGALETVVSGVTGVFFKEQTVDSLKSAVNEFEKINFDKSVIRRHAEEFDEEIFKKKIREYLSRSYDEFKKLKKWKVEGHHHHHH | soluble
MAHHHHHHMGCSASKDTTNSKDGAASKGGKDGKTTADRKVAWERIRCAIPRDKDAESKSRRIELFKRFDTNGTGKLSFREVLDGCYSILKLDEFTTHLPGIVQRAFDKAKDLGNKVKGVGEEDLVEFLEFRLMLCYIYDIFELTVMFDTMDKDGSLLIELQEFKEALPKLKEWGVDITDATTVFNEIDTNGSGVVTFDEFSCWAVTKKLQVCGDPDGEGAAKTTADRKVAWERIRCAIPRDKDAESKSRRIELFKQFDTNGTGKLGFREVLDGCYSVLKLDEFTTHLPDIVQRAFDKAKDLGNRVKGVGEEDLVEFLEFRLMLCYIYDIFELTVMFDTMDKDGSLLLELQEFKEALPKLKEWGVDITDATTVFNEIDTNGSGVVTFDEFSCWAVTKKLQVCGDPDGEENGANEGN | soluble
